The assay deals with BB2. The assay can be described thus: SEC-MALS. A general note: Size exclusion chromatography separates by hydrodynamic size, large species first.

In the case of BB2, the stoichiometry N was determined as 4.

The stoichiometry N is the number of molecules, sites or subunits per partner or assembly.
